From patent US20030021774

What was measured:
[1] = target: soybean agglutinin (SBA), P05046
[2] = target: T1, Soybean Kunitz Trypsin Inhibitor, P01070
T1 chain: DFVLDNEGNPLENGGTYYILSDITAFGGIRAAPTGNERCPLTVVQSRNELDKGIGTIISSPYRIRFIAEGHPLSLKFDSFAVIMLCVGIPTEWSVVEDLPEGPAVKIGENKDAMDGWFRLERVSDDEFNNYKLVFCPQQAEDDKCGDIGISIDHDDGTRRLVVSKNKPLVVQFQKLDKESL

[3] = target: T2, soybean Bowman-Birk Inhibitor, P01055
T2 chain: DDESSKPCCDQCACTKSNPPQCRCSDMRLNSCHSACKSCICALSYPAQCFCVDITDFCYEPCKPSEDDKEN

soybean agglutinin (SBA), P05046, sequence (P05046 33-285): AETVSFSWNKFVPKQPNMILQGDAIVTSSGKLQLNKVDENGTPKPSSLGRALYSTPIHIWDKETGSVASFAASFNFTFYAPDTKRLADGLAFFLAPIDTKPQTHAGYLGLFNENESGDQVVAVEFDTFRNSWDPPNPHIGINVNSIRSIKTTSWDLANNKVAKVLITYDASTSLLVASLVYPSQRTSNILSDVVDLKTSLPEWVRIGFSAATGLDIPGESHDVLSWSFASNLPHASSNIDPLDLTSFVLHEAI

B1: protease derived from Bacillus sp. NCIMB 40484 (protein)
chain: MKFKKIAALSLATSLALFPAFGGSSLAKEAPKPFQPINKTLDKGAFESGEVIVKFKDGVSKKAQGSALNKAEANEQKASAKDPFQVLEVADVDQAVKALENNPNVEYAEPNYTFQATWSPNDPYYSAYQYGPQNTSTPAAWDVTRGSSTQTVAVLDSGVDYNHPDLARKVIKGYDFIDRDNNPMDLNGHGTHVAGTVAADTNNGIGVAGMAPDTKILAVRVLDANGSGSLDSIASGIRYAADQGAKVLNLSLGCECNSTTLKSAVDYAWNKGAVVVAAAGNDNVSRTFQPASYPNAIAVGAIDSNDRKASFSNYGTWVDVTAPGVNIASTVPNNGYSYMSGTSMASPHVAGLAALLASQGKNNVQIRQAIEQTADKISGTGTNFKYGKINSNKAVRY
[1]
  % of anti-nutritional factor degraded (SDS-PAGE band scanning): 21%
[2]
  % of anti-nutritional factor degraded (SDS-PAGE band scanning): 100%
[3]
  % of anti-nutritional factor degraded (SDS-PAGE band scanning): 41%
